Values quoted from earlier work, collected in paper PMC3134471.

Target: luteinizing hormone receptor (Homo sapiens) (UniProt P22888)
UniProt P22888, sequence (P22888 27-699): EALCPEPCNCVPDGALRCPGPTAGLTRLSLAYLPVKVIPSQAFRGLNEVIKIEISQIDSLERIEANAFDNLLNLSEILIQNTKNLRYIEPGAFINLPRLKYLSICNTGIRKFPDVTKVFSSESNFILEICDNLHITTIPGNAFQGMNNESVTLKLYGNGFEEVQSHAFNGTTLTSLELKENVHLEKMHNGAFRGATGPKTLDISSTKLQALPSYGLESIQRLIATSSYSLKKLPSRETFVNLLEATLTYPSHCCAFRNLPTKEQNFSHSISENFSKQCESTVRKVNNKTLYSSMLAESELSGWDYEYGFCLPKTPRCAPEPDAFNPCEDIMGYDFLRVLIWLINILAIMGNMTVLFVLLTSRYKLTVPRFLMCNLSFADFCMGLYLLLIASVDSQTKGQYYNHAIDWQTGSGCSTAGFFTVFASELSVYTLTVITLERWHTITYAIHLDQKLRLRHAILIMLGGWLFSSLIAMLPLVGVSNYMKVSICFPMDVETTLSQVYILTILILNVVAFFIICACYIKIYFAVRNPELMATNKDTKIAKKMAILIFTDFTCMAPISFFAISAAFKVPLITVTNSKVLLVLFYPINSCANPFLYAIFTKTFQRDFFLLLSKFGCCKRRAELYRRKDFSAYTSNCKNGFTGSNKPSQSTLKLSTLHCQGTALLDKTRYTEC

Kd: 0.3 nM
Substance: human chorionic gonadotropin (from UniProt P01215)
